Assay results as given in article PMC7211764.

Target: wild-type A3A 1-199 (APOBEC3A) (human) (UniProt P31941)
Assay: SEC

wild-type A3A 1-199 (APOBEC3A), P31941 1-199 (enzyme; other documents disagree on this pair), sequence (P31941 whole entry): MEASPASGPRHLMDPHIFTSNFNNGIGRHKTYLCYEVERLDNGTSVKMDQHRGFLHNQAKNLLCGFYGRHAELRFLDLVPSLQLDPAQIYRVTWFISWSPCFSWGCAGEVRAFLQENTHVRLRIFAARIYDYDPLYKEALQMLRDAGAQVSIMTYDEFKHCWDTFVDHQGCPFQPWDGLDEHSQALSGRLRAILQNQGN

stoichiometry N: 2
Substance: wild-type A3A 1-199 (APOBEC3A), P31941 1-199 (enzyme; other documents disagree on this pair)
